Article PMC6700365, “Expression and Characterization of Carotenoid Cleavage Oxygenases From Herbaspirillum seropedicae and Rhodobacteraceae bacterium Capable of Biotransforming Isoeugenol and 4-Vinylguaiacol to Vanillin” (Frontiers in Microbiology, 2019)

Assays:
Test in all cases: HPLC of vanillin formed
HPLC of vanillin formed [1] = substrate: C=Cc1ccc(O)c(OC)c1; type: biochemical, Paracoccaceae bacterium; conditions: measured under optimal conditions (pH 9.0, 35 °C), 10% glycerol
Description: (§1) HPLC of vanillin formed on RbCCO

HPLC of vanillin formed [2] = substrate: CC=Cc1ccc(O)c(OC)c1; type: biochemical, Paracoccaceae bacterium; conditions: measured under optimal conditions (pH 9.0, 35 °C), 10% glycerol
Description: as §1

HPLC of vanillin formed [3] = substrate: C=Cc1ccc(O)c(OC)c1; type: biochemical, Herbaspirillum seropedicae; conditions: measured under optimal conditions (pH 7.0, 40 °C), 10% glycerol
Description: (§2) HPLC of vanillin formed on HsCCO

HPLC of vanillin formed [4] = substrate: CC=Cc1ccc(O)c(OC)c1; type: biochemical, Herbaspirillum seropedicae; conditions: measured under optimal conditions (pH 7.0, 40 °C), 10% glycerol
Description: as §2

B1: RbCCO (Paracoccaceae bacterium) (protein)
chain: MTRPFPKTPEFSGSLYRPARFEGSVFDLEVEGRVPEDIHGTFFQVAPDPQFPPMRGNDIFFNGDGAVHAFRFANGAVDFQRRYVMTDRLKAQRAERESLFGLYRNGYTNDPRADGVHMGTANTNVVQHNGRLLALKEDSPPYALDPVTLETHGLFDFDGQLTSPTFTAHPKFDPETGAMLCFGYEAKGEATPDIVYYEIDSQGRKQREIWLRGPYAAMIHDFAVTRNYIIFPLMPLTPDLDRIRKGGNHFEWQPGLEQVFGVLPRDGDGTDVRWFTAPNGFQGHTLNAFDDGRGRIFVDMPVTDGNIFYFFPQSDGHVPPPETLSSRMMRWTFDMNNPGNALSMAPITDFACEFPKCDPRYSGHEYRHGFVIGMDMTRPFDAERLGAPPFQFFNLLSHVDVATRRVKSWFADAQTCFQEPVFVPRSANAPEGEGWVIALANRLVDQTTDLVILDAQHMDEGPVAVVHLPVRLRMSLHGSWVPAAA
notes: codon-optimized gene, BamHI/XhoI in pET-29a(+), His-tagged, co-expressed with GroEL/GroES (pGro7) in E. coli BL21(DE3), Ni-NTA, about 55 kDa on SDS-PAGE
- Km (HPLC of vanillin formed [1]): 0.85 mM
- Vmax (HPLC of vanillin formed [1]): 0.02 µmol/min/mg
- Km (HPLC of vanillin formed [2]): 2.24 mM
- Vmax (HPLC of vanillin formed [2]): 0.0765 µmol/min/mg

B2: HsCCO (Herbaspirillum seropedicae) (protein)
chain: MSMQYPATPEFQGMYRPSRVEASVQALEVVGQLPAQLQGCFYQVAPDPAYPPMLGQDIFFNGDGMVSAFRFGQGQVSLTRRYVQTERLKAQRQAGRSLNGIYRNIYTNAPEAASDNTTANTTVIKHAGVLLALKEDSLPYAMDPVTLETRGLWDFHGQVKSATFTAHPKICPQSGSMLCFAYEAKGDGTPDIAYYEIDAAGKLIRETWFQAPYAAMIHDFAVTENYVIFPIIPLTVDVERMKRGGQHFQWQPDLPQLFGILPRAGDAADVRWFYGPADGFQGHTLNAYELGRKLILDMPVTSGNVFYFFPQADGFVPSPETLKSGLARWTFDLDADNDQVMPEPLTQFPCEFPRCDERYSGRPYQHGFMLAFDPTLPFDAAALGAPPFQFFNQLAHVNVRTGETRTWYAGDAHCFQEPVFVPRSADAPEGDGFLLSLLNDLRSGATELVILDTHDLSAGPVARVQIPLRMRMSLHGNWSSD
notes: codon-optimized gene, NdeI/XhoI in pET-29a(+), His-tagged, E. coli BL21(DE3), Ni-NTA, about 55 kDa on SDS-PAGE
- Km (HPLC of vanillin formed [3]): 1.65 mM
- Vmax (HPLC of vanillin formed [3]): 0.0279 µmol/min/mg
- Km (HPLC of vanillin formed [4]): 1.55 mM
- Vmax (HPLC of vanillin formed [4]): 0.0741 µmol/min/mg
